Measurements as given in paper PMC2942077 (Biochemistry, 2010).
Positions count from the first letter of the chain named.

Experiments:
Assay in all cases: pull-down
[1] = molecular target: T1, purified recombinant wild-type human RP2 (human, UniProt O75695 1-350)
T1 sequence (looked up): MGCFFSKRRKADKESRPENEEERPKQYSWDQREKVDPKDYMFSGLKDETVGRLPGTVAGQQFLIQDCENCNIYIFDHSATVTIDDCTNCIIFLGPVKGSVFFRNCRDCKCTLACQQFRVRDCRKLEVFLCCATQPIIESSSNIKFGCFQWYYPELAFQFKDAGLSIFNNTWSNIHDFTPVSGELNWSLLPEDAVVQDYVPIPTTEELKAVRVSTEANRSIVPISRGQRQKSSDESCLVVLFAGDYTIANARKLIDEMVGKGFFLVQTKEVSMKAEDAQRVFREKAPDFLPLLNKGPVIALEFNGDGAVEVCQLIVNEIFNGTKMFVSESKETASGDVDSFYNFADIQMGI

[2] = molecular target: T2, RP2 R282W disease-linked mutant, purified recombinant (human, UniProt O75695 1-350, R282W)
T2 sequence (looked up): T1 sequence (looked up) with R282W

[3] = molecular target: T3, RP2 L188P disease-causing mutant, purified recombinant (human, UniProt O75695 1-350, L188P)
T3 sequence (looked up): T1 sequence (looked up) with L188P

[4] = molecular target: T4, RP2 R118H disease-linked mutant, purified recombinant (human, UniProt O75695 1-350, R118H)
T4 sequence (looked up): T1 sequence (looked up) with R118H

Measured: binding result

B1: GST fusion protein containing the N-terminal domain of NSF (domain or fragment, Chinese hamster, UniProt P18708 1-205, looked up)
chain: MAGRSMQAARCPTDELSLSNCAVVSEKDYQSGQHVIVRTSPNHKYIFTLRTHPSVVPGSVAFSLPQRKWAGLSIGQEIEVALYSFDKAKQCIGTMTIEIDFLQKKNIDSNPYDTDKMAAEFIQQFNNQAFSVGQQLVFSFNDKLFGLLVKDIEAMDPSILKGEPASGKRQKIEVGLVVGNSQVAFEKAENSSLNLIGKAKTKENR
binds: all assays above
